Paper PMC7690626

Molecular target: T22-GFP-H6 protein nanoparticle (unlabeled) (horseshoe crab | not stated)
Experiment: SEC-MALS; Superdex 200 increase 10/300 GL; 166 mM NaHCO3, 333 mM NaCl, 0.1 mM NiCl2, pH 8; average molar mass of the self-assembled nanoparticles, in duplicate

T22-GFP-H6 protein nanoparticle (unlabeled)
stoichiometry N: 10 copies
